To fix the notation:
B1: Myocyte-specific enhancer factor 2 (Drosophila melanogaster (Fruit fly)), P40791 (parent)
chain: MGRKKIQISRITDERNRQVTFNKRKFGVMKKAYELSVLCDCEIALIIFSSSNKLYQYASTDMDRVLLKYTEYNEPHESLTNKNIIEKENKNGVMSPDSPEAETDYTLTPRTEAKYNKIDEEFQNMMQRNQMAIGGAGAPRQLPNSSYTLPVSVPVPGSYGDNLLQASPQMSHTNISPRPSSSETDSGGMSLIIYPSGSMLEMSNGYPHSHSPLVGSPSPGPSPGIAHHLSIKQQSPGSQNGRASNLRVVIPPTIAPIPPNMSAPDDVGYADQRQSQTSLNTPVVTLQTPIPALTSYSFGAQDFSSSGVMNSADIMSLNTWHQGLVPHSSLSHLAVSNSTPPPATSPVSIKVKAEPQSPPRDLSASGHQQNSNGSTGSGGSSSSTSSNASGGAGGGGAVSAANVITHLNNVSVLAGGPSGQGGGGGGGGSNGNVEQATNLSVLSHAQQHHLGMPNSRPSSTGHITPTPGHDKYEGYPYRALMGHNPRWNLNFAGAPSSDQDVRLAAVAVQQQQQQPHQQQQLGDYDAPNHKRPRISGGWGT
partner: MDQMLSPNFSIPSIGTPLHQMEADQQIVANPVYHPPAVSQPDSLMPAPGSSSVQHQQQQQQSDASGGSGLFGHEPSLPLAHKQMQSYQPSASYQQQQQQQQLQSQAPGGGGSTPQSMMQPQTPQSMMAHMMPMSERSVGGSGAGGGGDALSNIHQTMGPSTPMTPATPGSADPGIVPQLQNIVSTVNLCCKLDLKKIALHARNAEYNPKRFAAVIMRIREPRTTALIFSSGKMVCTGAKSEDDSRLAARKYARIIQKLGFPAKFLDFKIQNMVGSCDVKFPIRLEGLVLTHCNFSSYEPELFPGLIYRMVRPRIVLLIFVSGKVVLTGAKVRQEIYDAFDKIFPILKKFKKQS

In this assay the parent is B1. The following applies: with tbp_drome Tbp.
Take T20E: the “effect of a mutation on the interaction” value was “decreasing interaction strength”.
Consider T20A, for which the “effect of a mutation on the interaction” value was “increasing interaction strength”.
